T1: IL-18 receptor (IL-18Rα/IL-18Rβ) overexpressed on HEK-Blue IL-18 cells (Homo sapiens (Human), UniProt Q13478 19-541; O95256 20-599)
T1 sequence 1: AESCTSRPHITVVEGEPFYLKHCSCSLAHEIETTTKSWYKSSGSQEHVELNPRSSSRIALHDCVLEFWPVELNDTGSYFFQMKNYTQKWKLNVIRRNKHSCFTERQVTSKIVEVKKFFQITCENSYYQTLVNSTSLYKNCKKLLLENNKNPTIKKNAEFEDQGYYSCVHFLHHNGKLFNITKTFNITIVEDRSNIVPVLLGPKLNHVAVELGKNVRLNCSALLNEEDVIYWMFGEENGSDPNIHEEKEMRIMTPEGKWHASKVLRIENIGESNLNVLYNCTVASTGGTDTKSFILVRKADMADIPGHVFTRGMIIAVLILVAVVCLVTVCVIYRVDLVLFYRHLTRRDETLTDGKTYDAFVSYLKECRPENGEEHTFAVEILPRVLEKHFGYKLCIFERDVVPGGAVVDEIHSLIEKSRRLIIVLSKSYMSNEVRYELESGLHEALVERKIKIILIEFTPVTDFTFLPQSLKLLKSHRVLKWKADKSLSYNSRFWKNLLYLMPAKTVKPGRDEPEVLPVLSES
T1 sequence 2: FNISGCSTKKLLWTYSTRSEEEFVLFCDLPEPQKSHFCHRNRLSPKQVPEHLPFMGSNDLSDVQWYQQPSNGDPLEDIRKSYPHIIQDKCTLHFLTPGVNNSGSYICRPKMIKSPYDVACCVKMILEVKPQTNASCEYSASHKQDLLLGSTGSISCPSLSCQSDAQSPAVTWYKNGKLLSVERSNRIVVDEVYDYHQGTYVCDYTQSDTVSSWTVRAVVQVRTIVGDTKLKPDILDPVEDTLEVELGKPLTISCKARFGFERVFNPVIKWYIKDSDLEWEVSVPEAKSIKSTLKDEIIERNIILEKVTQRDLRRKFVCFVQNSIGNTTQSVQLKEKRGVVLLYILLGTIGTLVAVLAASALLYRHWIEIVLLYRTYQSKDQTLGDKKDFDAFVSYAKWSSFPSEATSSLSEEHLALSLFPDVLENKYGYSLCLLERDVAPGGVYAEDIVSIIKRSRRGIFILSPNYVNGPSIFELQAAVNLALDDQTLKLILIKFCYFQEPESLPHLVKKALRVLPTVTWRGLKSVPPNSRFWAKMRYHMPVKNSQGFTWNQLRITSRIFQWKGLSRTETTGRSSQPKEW


Target: T1, IL-18 receptor (IL-18Rα/IL-18Rβ) …
Test: cell-based or functional assay

Binder	HEK-Blue IL-18: Abs405 (Emax)	HEK-Blue IL-18: EC50
DGL068 (bispecific antibody, V domains shown) V domain 1: EVQLVESGGGLVQPGGSLRLSCAASGSIFSINAMGWYRQAPGKQREVVATSTGGGMTNYADSVKGRFTISRDNAKNTVYLQMNSLKPEDTAVYYCNADKDPFFPGDYWGQGTQVTVSS V domain 2: QVQLVESGGGLVQAGGSLRLSCVASGTFFQIHVMGWYRQAPGKQRELVAFIINNGGTRYADSVKGRFTISRDYAKNTVYLQMNSLKPEDTAVYYCNTEGTYRGRYSTDNWGQGTQVTVSS	0.36 Abs	18 pM
DGL062 (bispecific antibody, V domains shown) V domain 1: QVQLQESGGGLVQPGGSLRLSCAASGSIFSTKGLGWYRQAPGEQRELVAGISSAGWIFYTQSVKGRFTMSRDNAKNTVYLQMNSLKPEDTAVYYCNSAQSGVPLRSWGQGTQVTVAS V domain 2: QVQLQESGGGLVQPGGSLGLSCAASGIKISVNSMAWYRQAPGERREMVAVISSGGSAVYADSVKGRFTISRDNAKNMVYLQMNSLKPEDTAVYYCHPGSAAYRDYWGQGTQVTVSS	0.88 Abs	3.4 pM
DGL075 (bispecific antibody, V domains shown) V domain 1: EVQLVESGGGLVQPGGSLRLSCAASGSIFSINAMGWYRQAPGKQREVVATSTGGGMTNYADSVKGRFTISRDNAKNTVYLQMNSLKPEDTAVYYCNADKDPFFPGDYWGQGTQVTVSS V domain 2: EVQLVESGGGVAQAGGSLRLSCAASITSFSLNTMGYYRQLPGKQRELVAVESSSGITNYADSVKGRFTISRDGAKNTVFLQMNSLTPEDTAVYYCGGKLFGRDFWGQGTQVTVSS	0.81 Abs	28 pM
DGL052 (bispecific antibody, V domains shown) V domain 1: QVQLQESGGGLVQPGGSLRLSCAASGFIFSNWYMRWVRQAPGEGLEWVSSINSGGDDTDYADSVKGRFTISRDNAKGTLYLQMHSLKPEDTALYYCERGADRVRGQGTQVTVSS V domain 2: QVQLVESGGDLVLPGGSLKLSCEASGSISSRNSMAWYRRAPGKQRELVAAISSISSGGRTDYADFVKGRFTIFRDTAKNMVYLQMNNLKPEDTAVYDCDDPIRVASLAYDDWGQGTQVTVSS	1.03 Abs	4.1 pM
DGL076 (bispecific antibody, V domains shown) V domain 1: QVQLQESGGGLVQPGGSLRLSCAASGNIFRATGMGWYRQAPGKWRELVARISSTGSPNYVDFVKGRFTISRDNAKNTLYLQMNSLKPDDTAVYYCNTVGTTLFAWGQGTQVTVSS V domain 2: EVQLVESGGGVAQAGGSLRLSCAASITSFSLNTMGYYRQLPGKQRELVAVESSSGITNYADSVKGRFTISRDGAKNTVFLQMNSLTPEDTAVYYCGGKLFGRDFWGQGTQVTVSS	0.49 Abs	6.6 pM

The remaining lines, values ahead:

HEK-Blue IL-18: Abs405 (Emax)	HEK-Blue IL-18: EC50	Binder
0.6 Abs	28 pM	DGL060 (bispecific antibody, V domains shown) V domain 1: EVQLVESGGGLVQPGGSLRLSCAASGSIFSINAMGWYRQAPGKQREVVATSTGGGMTNYADSVKGRFTISRDNAKNTVYLQMNSLKPEDTAVYYCNADKDPFFPGDYWGQGTQVTVSS V domain 2: QVQLQESGGGLVQPGGSLGLSCAASGIKISVNSMAWYRQAPGERREMVAVISSGGSAVYADSVKGRFTISRDNAKNMVYLQMNSLKPEDTAVYYCHPGSAAYRDYWGQGTQVTVSS
0.47 Abs	6.3 pM	DGL061 (bispecific antibody, V domains shown) V domain 1: QVQLQESGGGLVQPGGSLRLSCAASGNIFRATGMGWYRQAPGKWRELVARISSTGSPNYVDFVKGRFTISRDNAKNTLYLQMNSLKPDDTAVYYCNTVGTTLFAWGQGTQVTVSS V domain 2: QVQLQESGGGLVQPGGSLGLSCAASGIKISVNSMAWYRQAPGERREMVAVISSGGSAVYADSVKGRFTISRDNAKNMVYLQMNSLKPEDTAVYYCHPGSAAYRDYWGQGTQVTVSS
0.6 Abs	14 pM	DGL063 (bispecific antibody, V domains shown) V domain 1: QLQLVESGGGLVQPGGSLRLSCAASGKIFSINIMDWYRQAPGKERELVARISPGDIITYANDVKGRFTISRNNAKNTVYLQMNSLKPEDTAVYYCRWRQGAGDYWGRGTQVTVSS V domain 2: QVQLQESGGGLVQPGGSLGLSCAASGIKISVNSMAWYRQAPGERREMVAVISSGGSAVYADSVKGRFTISRDNAKNMVYLQMNSLKPEDTAVYYCHPGSAAYRDYWGQGTQVTVSS

Target: T1, IL-18 receptor (IL-18Rα/IL-18Rβ) …
Test: cell-based or functional assay
Remark: another data set of the same source

Binder	HEK-Blue IL-18: Abs 405	HEK-Blue IL-18: Fold over Background
DGL321 (bispecific antibody, V domains shown) V domain 1: QVQLQESGGGLVQPGGSARLSCVASGIIFNDYHMGWYRQAPGKQRDLVAGITAGGSTTYADSVKGRFTISRDNAKHTVYLQMNNLSPEDTAVYYCNTFYNAILDWGKGTLVTVSS V domain 2: QLQLVESGGGLVQAGGSLRLSCAASRSITFSHNVMGWYRQAPGKQRELVASIGSGGSTNYVDSVKGRATISRDNAKKTVYLQMNSLKPEDTAVYYCGVVVGVYRGSLGQGTQVTVSS	0.38 Abs	1.7 fold
DGL320 (bispecific antibody, V domains shown) V domain 1: QVQLQESGGGLVQPGGSLRLSCAASGSIFSTKGLGWYRQAPGEQRELVAGISSAGWIFYTQSVKGRFTMSRDNAKNTVYLQMNSLKPEDTAVYYCNSAQSGVPLRSWGQGTQVTVAS V domain 2: QLQLVESGGGLVQAGGSLRLSCAASRSITFSHNVMGWYRQAPGKQRELVASIGSGGSTNYVDSVKGRATISRDNAKKTVYLQMNSLKPEDTAVYYCGVVVGVYRGSLGQGTQVTVSS	2.36 Abs	10.3 fold
DGL322 (bispecific antibody, V domains shown) V domain 1: QVQLVESGGGLVQAGGSLRLSCAASGRTFSSYTMGWFRQAPGKEREFVAAISWSAGRTYYADSVKGRFTISRDNAKNTVYLQMNSLKPEDTAVYFCAAEEAPDWAPIDCSGYGCLSLYDYWGQGTQVTVSS V domain 2: QLQLVESGGGLVQAGGSLRLSCAASRSITFSHNVMGWYRQAPGKQRELVASIGSGGSTNYVDSVKGRATISRDNAKKTVYLQMNSLKPEDTAVYYCGVVVGVYRGSLGQGTQVTVSS	0.74 Abs	3.2 fold
DGL323 (bispecific antibody, V domains shown) V domain 1: QVQLQESGGGLVQPGGSLRLSCAASGFIFSNWYMRWVRQAPGEGLEWVSSINSGGDDTDYADSVKGRFTISRDNAKGTLYLQMHSLKPEDTALYYCERGADRVRGQGTQVTVSS V domain 2: QLQLVESGGGLVQAGGSLRLSCAASRSITFSHNVMGWYRQAPGKQRELVASIGSGGSTNYVDSVKGRATISRDNAKKTVYLQMNSLKPEDTAVYYCGVVVGVYRGSLGQGTQVTVSS	0.42 Abs	1.8 fold

More lines, now with the values ahead:

HEK-Blue IL-18: Abs 405	HEK-Blue IL-18: Fold over Background	Binder
2.88 Abs	12.5 fold	DGL319 (bispecific antibody, V domains shown) V domain 1: EVQLVESGGGLVQPGGSLRLSCAASGSIFSINAMGWYRQAPGKQREVVATSTGGGMTNYADSVKGRFTISRDNAKNTVYLQMNSLKPEDTAVYYCNADKDPFFPGDYWGQGTQVTVSS V domain 2: QLQLVESGGGLVQAGGSLRLSCAASRSITFSHNVMGWYRQAPGKQRELVASIGSGGSTNYVDSVKGRATISRDNAKKTVYLQMNSLKPEDTAVYYCGVVVGVYRGSLGQGTQVTVSS
2.23 Abs	9.7 fold	DGL318 (bispecific antibody, V domains shown) V domain 1: QVQLVESGGGLVQAGGSLRLSCAASGRTFSSYDMGWFRQAPGKEREFVAALRWSGGSTSYADSVKGRFTISRDNAKNTVYLHMNSLKPEDTAVYYCAATLETDSGTYWADYWGQGTQVTVSS V domain 2: QLQLVESGGGLVQAGGSLRLSCAASRSITFSHNVMGWYRQAPGKQRELVASIGSGGSTNYVDSVKGRATISRDNAKKTVYLQMNSLKPEDTAVYYCGVVVGVYRGSLGQGTQVTVSS

— US20240209100A1 (DIAGONAL THERAPEUTICS, published 2024)
